Columns and labels:
[1] = target: S. aureus GudB (glutamate dehydrogenase) (S. aureus (endogenous in USA300 JE2)); assay: native gel or EMSA
SEC = target: the molecule itself; assay: SEC
native gel or EMSA = target: the molecule itself; assay: native gel or EMSA

| Molecule | stoichiometry N (SEC) | other results |
| --- | --- | --- |
| S. aureus GudB (glutamate dehydrogenase) (enzyme) |  | stoichiometry N [1]: 3 |
| N-terminally His-tagged WT Bcd (B. subtilis Val/Leu/Ile dehydrogenase) (enzyme, UniProt P54531 1-364, looked up) MELFKYMEKYDYEQLVFCQDEQSGLKAIIAIHDTTLGPALGGTRMWTYENEEAAIEDALRLARGMTYKNAAAGLNLGGGKTVIIGDPRKDKNEEMFRAFGRYIQGLNGRYITAEDVGTTVEDMDIIHDETDYVTGISPAFGSSGNPSPVTAYGVYRGMKAAAKAAFGTDSLEGKTIAVQGVGNVAYNLCRHLHEEGANLIVTDINKQSVQRAVEDFGARAVDPDDIYSQDCDIYAPCALGATINDDTIKQLKAKVIAGAANNQLKETRHGDQIHEMGIVYAPDYVINAGGVINVADELYGYNAERALKKVEGIYGNIERVLEISQRDGIPAYLAADRLAEERIERMRRSRSQFLQNGHSVLSRR | 6 |  |
| Bcd, native complex in B. subtilis NCIB3610 cell lysate (enzyme, B. subtilis (endogenous in NCIB3610), UniProt P54531 1-364, looked up) MELFKYMEKYDYEQLVFCQDEQSGLKAIIAIHDTTLGPALGGTRMWTYENEEAAIEDALRLARGMTYKNAAAGLNLGGGKTVIIGDPRKDKNEEMFRAFGRYIQGLNGRYITAEDVGTTVEDMDIIHDETDYVTGISPAFGSSGNPSPVTAYGVYRGMKAAAKAAFGTDSLEGKTIAVQGVGNVAYNLCRHLHEEGANLIVTDINKQSVQRAVEDFGARAVDPDDIYSQDCDIYAPCALGATINDDTIKQLKAKVIAGAANNQLKETRHGDQIHEMGIVYAPDYVINAGGVINVADELYGYNAERALKKVEGIYGNIERVLEISQRDGIPAYLAADRLAEERIERMRRSRSQFLQNGHSVLSRR |  | stoichiometry N (native gel or EMSA): 6 |
| N-terminally His-tagged Bcd(K80A) (enzyme, B. subtilis, UniProt P54531 1-364, looked up) MELFKYMEKYDYEQLVFCQDEQSGLKAIIAIHDTTLGPALGGTRMWTYENEEAAIEDALRLARGMTYKNAAAGLNLGGGATVIIGDPRKDKNEEMFRAFGRYIQGLNGRYITAEDVGTTVEDMDIIHDETDYVTGISPAFGSSGNPSPVTAYGVYRGMKAAAKAAFGTDSLEGKTIAVQGVGNVAYNLCRHLHEEGANLIVTDINKQSVQRAVEDFGARAVDPDDIYSQDCDIYAPCALGATINDDTIKQLKAKVIAGAANNQLKETRHGDQIHEMGIVYAPDYVINAGGVINVADELYGYNAERALKKVEGIYGNIERVLEISQRDGIPAYLAADRLAEERIERMRRSRSQFLQNGHSVLSRR | 6 |  |
